The values below come from US20030017568A1, “Smooth muscle myosin phosphatase associated kinase” (priority 2001, published 2003).

The test system of this assay is permealized rabbit longitudinal ileum smooth muscle strips. Nature of the assay: Force in permeabilized rabbit longitudinal ileum smooth muscle strips (Ca2+-sensitization). Here is the method:
Instead, when rN-ZIP^1-320 kinase is added a 40% increase in muscular force is produced at the same submaximal calcium concentration.

B1: rN-ZIP^1-320 kinase: recombinant 38 kDa GST-fusion protein of the N-terminal region (1-320) of ZIP kinase, expressed in E. coli, constitutively active (protein, UniProt O43293 1-320, looked up, fragment)
chain: MSTFRQEDVEDHYEMGEELGSGQFAIVRKCRQKGTGKEYAAKFIKKRRLSSSRRGVSREEIEREVNILREIRHPNIITLHDIFENKTDVVLILELVSGGELFDFLAEKESLTEDEATQFLKQILDGVHYLHSKRIAHFDLKPENIMLLDKNVPNPRIKLIDFGIAHKIEAGNEFKNIFGTPEFVAPEIVNYEPLGLEADMWSIGVITYILLSGASPFLGETKQETLTNISAVNYDFDEEYFSNTSELAKDFIRRLLVKDPKRRMTIAQSLEHSWIKAIRRRNVRGEDSGRKPERRRLKTTRLKEYTIKSHSSLPPNNSYA
modifications: GST fusion
With B1, the “Increase in muscular force” value (at the same submaximal calcium concentration) was determined as 40%. The “Contraction in the absence of calcium” value (permeabilized ileum strips, no calcium) is reported as “does not cause contraction”.
